# According to patent publication US7393670B2, “Tyrosyl-tRNA synthetase variants” (Japan Science and Technology Agency, priority 2001, dated 2008):
# Experiments:
# Type in all cases: biochemical
# [1] = Aminoacylation activity by Lloyd's method (release of pyrophosphates)
# Description: In the second method, Lloyd's method (Nucleic Acids Research, 23:2886-2892, 1995) was carried out without alteration.
# In the second method, the activity was assayed by Lloyd's method (Nucleic Acids Research, 23:2886-2892, 1995). Each enzyme obtained was incubated with 0.4 ml of the buffer B containing 1 mM ATP (Seikagaku Corporation), 100 μM purified crude tyrosyl-tRNA, 200 μM tyrosine or 3-iodotyrosine at 37° C. for 6 min. The aminoacylation activity was represented as concentrations of released phosphate per min.
# [2] = system: tyrosine or 3-iodotyrosine for the full-length tRNA; assay: Aminoacylation of full-length tRNA by acidic polyacrylamide gel electrophoresis (Wolfson); conditions: acidic PAGE; 200 μM amino acid, enzyme 50 nM, 37° C. for 3 min
# Description: In the third method, levels of aminoacylation activity in the presence of tyrosine or 3-iodotyrosine for the full-length tRNA were assayed by the same method as. acidic polyacrylamide gel electrophoresis described by Wolfson et al. (Wolfson, A. D. et al., RNA, 4:1019-1023, 1998). The result is shown in FIG. 1 as a photo, substitute for a drawing.
# In the third method, the aminoacylation activity for tyrosine or 3-iodotyrosine for tRNA in full length was assayed by the same method as acidic polyacrylamide electrophoresis by the method of Wolfson et al. (Wolfson, A. D. et al., RNA, 4:1019-1023, 1998). Tyrosine or iodotyrosine at 200 μM and the enzyme at 50 nM were incubated at 37° C. for 3 min, and subsequently the electrophoresis was carried out. The result of the aminoacylation activity of the enzymes with double mutations are shown on the photo, substitute for a drawing, in FIG. 1. In FIG. 1, left three lanes are from the wild-type enzyme, middle three lanes are from the enzyme modified at position 37 with valine (37V) and right three lanes are from the enzyme modified at positions 37 and 195 with valine and cysteine (VC), respectively. Three lanes in each group show the case without the addition of the amino acid (w/o aa), the case with the addition of 3-iodotyrosine (200 μM) (1-Tyr), and the case with the addition of tyrosine (200 μM) (Tyr), respectively from the left.
# [3] = system: wheat germ cell-free translation system; assay: Amber suppression in wheat germ cell-free protein synthesis system (c-H-Ras, 32nd codon amber)
# Source text: Production of the protein containing iodotyrosine was attempted by the reaction by a batch method in a wheat germ cell-free protein synthesis system using the resultant VC and an amber suppressor tRNA derived from tyrosine tRNA of E. coli. A short chain type of c-H-Ras added His-tag at the C-terminus via a spacer sequence (Milburn et al., Science 247:939-45, 1990) was used as the target protein. In translation where the template was mRNA made from a construction where the 32nd codon of this protein was replaced by the amber codon, the production of the protein in full length was dependent on coexistence of both TyrRS and the suppressor tRNA (FIG. 2). This proves that the suppressor tRNA used is scarcely aminoacylated by the endogenous aminoacyl-tRNA synthetase in the wheat germs. A synthetic quantity by the amber suppression was 30 to 40% of that of a control with no amber codon. In order to increase the synthetic quantity of the protein, the reaction by the suppression was carried out for 3 days using a dialysis method. […]
# The translation reaction was carried out by further adding iodotyrosine at a final concentration of 0.6 mM in addition to the condition of the kit. […] Using an image analyzer FLA-2000 (Fujifilm, Tokyo, Japan), counts of RI of bands on the gel were quantified, or protein bands stained using Cypro-tangerine protein gel stain (Molecular probes) on the gel were quantified.
# [4] = Aminoacylation reaction, simplified Lloyd's method, inorganic phosphate detected with Biomol green; set-up: key: ***: the reaction could be detected strongly at 25 nM; **: strongly at 250 nM; *: weakly at 250 nM; the activity is high in the order of *** > ** > * > —; conditions: Table 3; 3-iodotyrosine 1 mM; 37° C. for 4 min
# Description: In the first method, Lloyd's method (Nucleic Acids Research, 23:2886-2892, 1995) where inorganic phosphate produced by pyrophosphatase-drived hydrolysis of pyrophosphate which was one of the reaction products of the aminoacylation reactions was quantified was simplified, and the inorganic phosphate was detected using Biomol green (Funakoshi) to carry out the measurement of the aminoacylation reaction.
# Amino acid concentrations were 200 μM and 1 mM for tyrosine and 3-iodotyrosine, respectively.
# The method where the aminoacylation reaction is measured by quantifying inorganic phosphate produced by pyrophosphatase-drived hydrolysis of pyrophosphate which is one of reaction products of the aminoacylation has been described by Lloyd et al. (Nucleic Acids Research, 23:2886-2892, 1995). In one method of the invention, this method was simplified and the aminoacylation reaction was measured by the detection of inorganic phosphate using Biomol green (Funakoshi). Each enzyme obtained was incubated with 0.05 ml of the buffer B containing 1 mM ATP (Seikagaku Corporation), 30 μM purified crude tyrosyl-tRNA, and 100 μM tyrosine or 0.5 mM 3-iodotyrosine at 37° C. for one hour. To stop the reaction, 0.1 ml of Bio mol green was added. Absorbance of its supernatant was measured at 630 nm.
molecule,measurement,setting,value
"VC: E. coli TyrRS double variant: position 37 Valine, position 195 Cysteine (protein, UniProt P0AGJ9 2-424, looked up, variant Y37V Q195C) Tyrosine--tRNA ligase: ASSNLIKQLQERGLVAQVTDEEALAERLAQGPIALVCGFDPTADSLHLGHLVPLLCLKRFQQAGHKPVALVGGATGLIGDPSFKAAERKLNTEETVQEWVDKIRKQVAPFLDFDCGENSAIAANNYDWFGNMNVLTFLRDIGKHFSVNQMINKEAVKQRLNREDQGISFTEFSYNLLQGYDFACLNKQYGVVLCIGGSDQWGNITSGIDLTRRLHQNQVFGLTVPLITKADGTKFGKTEGGAVWLDPKKTSPYKFYQFWINTADADVYRFLKFFTFMSIEEINALEEEDKNSGKAPRAQYVLAEQVTRLVHGEEGLQAAKRITECLFSGSLSALSEADFEQLAQDGVPMVEMEKGADLMQALVDSELQPSRGQARKTIASNAITINGEKQSDPEYFFKEEDRLFGRFTLLRRGKKNYCLICWK",relative tyrosine analogue to tyrosine ratio,"[1]; 3-iodotyrosine versus tyrosine, from Table 4",more than 10
same,"Initial velocity of release of pyrophosphates, 3-iodotyrosine","[1]; at 37° C., 200 μM 3-iodotyrosine",9.5 nM PPi/min/nM enzyme
same,"Initial velocity of release of pyrophosphates, Tyrosine","[1]; at 37° C., 200 μM tyrosine",0.9 nM PPi/min/nM enzyme
same,specificity for the tyrosine analogue (attachment of amino acid to tRNA),[2],high specificity for the tyrosine analogue
same,"amber suppression (full-length translation product, SDS-PAGE)","[3]; FIG. 2, 14C-leucine labeled products",amber suppression was observed only when both TyrRS-VC variant and suppressor tRNA were present
same,quantity of the production of protein,"[3]; dialysis method, 3 days",≥ 0.1 mg per ml of reaction solution
same,"Aminoacylation activity, 3-iodotyrosine",[4],**
